B1: CYTADNEMGY (peptide)
peptide: CYTADNEMGY
B2: VSSTVHNLY (peptide)
peptide: VSSTVHNLY
B3: HTDLESPSAVY (peptide)
peptide: HTDLESPSAVY
B4: DIPDYLLQY (peptide)
peptide: DIPDYLLQY
B5: TQKSVQVLAY (peptide)
peptide: TQKSVQVLAY
B6: VQPGETYTY (peptide)
peptide: VQPGETYTY
B7: MMTDLTSVY (peptide)
peptide: MMTDLTSVY
B8: ITDFGLAKL (peptide)
peptide: ITDFGLAKL
B9: LLEADPFLKY (peptide)
peptide: LLEADPFLKY
B10: GLEYEAPKLY (peptide)
peptide: GLEYEAPKLY
B11: RTDEGDNRVW (peptide)
peptide: RTDEGDNRVW
B12: LSQDELSKF (peptide)
peptide: LSQDELSKF
B13: NSDESADSEPHKY (peptide)
peptide: NSDESADSEPHKY
B14: TVDNANILL (peptide)
peptide: TVDNANILL
B15: LVDGKWQEF (peptide)
peptide: LVDGKWQEF
B16: LADTDLGMTF (peptide)
peptide: LADTDLGMTF
B17: NVKEAPTEY (peptide)
peptide: NVKEAPTEY
B18: SVTDLIGGKW (peptide)
peptide: SVTDLIGGKW
B19: RAVQPGETY (peptide)
peptide: RAVQPGETY
B20: FTAQLQLY (peptide)
peptide: FTAQLQLY
B21: LCAAVLAKY (peptide)
peptide: LCAAVLAKY
B22: KLTDYINANY (peptide)
peptide: KLTDYINANY
B23: SQNGQLIHY (peptide)
peptide: SQNGQLIHY
B24: YHRICELLSDY (peptide)
peptide: YHRICELLSDY
B25: LMDEGAVLTL (peptide)
peptide: LMDEGAVLTL
B26: TDVERIKDTY (peptide)
peptide: TDVERIKDTY
B27: VQIAKGMNY (peptide)
peptide: VQIAKGMNY
B28: LSAQHRMLA (peptide)
peptide: LSAQHRMLA
B29: YLNEWGSRF (peptide)
peptide: YLNEWGSRF
B30: QTDINGGSLK (peptide)
peptide: QTDINGGSLK
B31: FSEPFHLIV (peptide)
peptide: FSEPFHLIV
B32: YTADNEMGYY (peptide)
peptide: YTADNEMGYY
B33: FTRAFDQLRM (peptide)
peptide: FTRAFDQLRM
B34: VMDTLGLFY (peptide)
peptide: VMDTLGLFY
B35: VQDPSLPVY (peptide)
peptide: VQDPSLPVY
B36: RMQEGSEVY (peptide)
peptide: RMQEGSEVY
B37: DVERIKDTY (peptide)
peptide: DVERIKDTY
B38: RLAQYTIERY (peptide)
peptide: RLAQYTIERY
B39: VSDSTTEITY (peptide)
peptide: VSDSTTEITY
B40: DTLEAATSLY (peptide)
peptide: DTLEAATSLY
B41: TQRTSFQFY (peptide)
peptide: TQRTSFQFY
B42: LSSAVNPIIY (peptide)
peptide: LSSAVNPIIY
B43: NDEIDKLTGY (peptide)
peptide: NDEIDKLTGY
B44: SSTDFTFASW (peptide)
peptide: SSTDFTFASW
B45: RSDPVSLRY (peptide)
peptide: RSDPVSLRY
B46: GSPDAVVSY (peptide)
peptide: GSPDAVVSY
B47: KTELETALYY (peptide)
peptide: KTELETALYY
B48: STDPNIVRK (peptide)
peptide: STDPNIVRK
B49: VSVYNSYPY (peptide)
peptide: VSVYNSYPY
B50: TSEVEGLAFVSY (peptide)
peptide: TSEVEGLAFVSY
B51: AVSSGLFFY (peptide)
peptide: AVSSGLFFY
B52: ASWAVLCYY (peptide)
peptide: ASWAVLCYY
B53: NSMLDPLVY (peptide)
peptide: NSMLDPLVY
B54: EADPFLKYL (peptide)
peptide: EADPFLKYL
B55: FRGVFVHRY (peptide)
peptide: FRGVFVHRY
B56: NAVDVVPSSF (peptide)
peptide: NAVDVVPSSF
B57: LLEGEDAHLTQY (peptide)
peptide: LLEGEDAHLTQY
B58: KLAGTVFQY (peptide)
peptide: KLAGTVFQY
B59: LLISKAEDY (peptide)
peptide: LLISKAEDY
B60: KTIQEVAGY (peptide)
peptide: KTIQEVAGY
B61: TQPELSSRY (peptide)
peptide: TQPELSSRY
B62: SLPEFGLTYY (peptide)
peptide: SLPEFGLTYY
B63: LTEGHSGNY (peptide)
peptide: LTEGHSGNY
B64: VDPIGHLY (peptide)
peptide: VDPIGHLY
B65: QSTTGVSHY (peptide)
peptide: QSTTGVSHY
B66: LAFYYGMY (peptide)
peptide: LAFYYGMY
B67: AQISDTGRY (peptide)
peptide: AQISDTGRY
B68: SLPEFGLTY (peptide)
peptide: SLPEFGLTY

Biological target: T1, HLA-A*01:01 (human)
T1 construct: MHC class I monomer first loaded with a UV-sensitive peptide (not identified) that is cleaved by UV irradiation and exchanged for the tested peptide; captured on streptavidin plates, detected with anti-β2m; also called peptide-receptive MHC molecules
Assay: UV-ligand exchange, anti-b2m ELISA
Source text: Candidate peptides for T cell based therapies according to the present invention were further tested for their MHC binding capacity (affinity). The individual peptide-MHC complexes were produced by UV-ligand exchange, where a UV-sensitive peptide is cleaved upon UV-irradiation and exchanged with the peptide of interest as analyzed. Only peptide candidates that can effectively bind and stabilize the peptide-receptive MHC molecules prevent dissociation of the MHC complexes. To determine the yield of the exchange reaction, an ELISA was performed based on the detection of the light chain (β2m) of stabilized MHC complexes. The assay was performed as generally described in Rodenko et al. (Rodenko et al., 2006)
96 well MAXISorp plates (NUNC) were coated over night with 2 ug/ml streptavidin in PBS at room temperature, washed 4× and blocked for 1 h at 37° C. in 2% BSA containing blocking buffer. Refolded HLA-A*02:01/MLA-001 monomers served as standards, covering the range of 15-500 ng/ml. Peptide-MHC monomers of the UV-exchange reaction were diluted 100-fold in blocking buffer. Samples were incubated for 1 h at 37° C., washed four times, incubated with 2 ug/ml HRP conjugated anti-β2m for 1 h at 37° C., washed again and detected with TMB solution that is stopped with […]. Absorption was measured at 450 nm.

| Binder | peptide exchange yield [%] |
| --- | --- |
| B1 | 50 to 75 |
| B2 | > 75 |
| B3 | 50 to 75 |
| B4 | 50 to 75 |
| B5 | 20 to 50 |
| B6 | 50 to 75 |
| B7 | 50 to 75 |
| B8 | 20 to 50 |
| B9 | > 75 |
| B10 | 20 to 50 |
| B11 | 20 to 50 |
| B12 | 20 to 50 |
| B13 | > 75 |
| B14 | 20 to 50 |
| B15 | 20 to 50 |
| B16 | 20 to 50 |
| B17 | 20 to 50 |
| B18 | 20 to 50 |
| B19 | 50 to 75 |
| B20 | 50 to 75 |
| B21 | 20 to 50 |
| B22 | 20 to 50 |
| B23 | 50 to 75 |

| Binder | peptide exchange yield [%] |
| --- | --- |
| B24 | > 75 |
| B25 | 20 to 50 |
| B26 | 50 to 75 |
| B27 | 50 to 75 |
| B28 | 20 to 50 |
| B29 | 20 to 50 |
| B30 | 50 to 75 |
| B31 | 50 to 75 |
| B32 | 50 to 75 |
| B33 | 50 to 75 |
| B34 | > 75 |
| B35 | 20 to 50 |
| B36 | 20 to 50 |
| B37 | 20 to 50 |
| B38 | 20 to 50 |
| B39 | 50 to 75 |
| B40 | 20 to 50 |
| B41 | 20 to 50 |
| B42 | 20 to 50 |
| B43 | > 75 |
| B44 | 10 to 20 |
| B45 | > 75 |
| B46 | 10 to 20 |

| Binder | peptide exchange yield [%] |
| --- | --- |
| B47 | 50 to 75 |
| B48 | 50 to 75 |
| B49 | 20 to 50 |
| B50 | 50 to 75 |
| B51 | 20 to 50 |
| B52 | 50 to 75 |
| B53 | > 75 |
| B54 | 20 to 50 |
| B55 | 20 to 50 |
| B56 | 10 to 20 |
| B57 | 50 to 75 |
| B58 | 20 to 50 |
| B59 | 20 to 50 |
| B60 | 20 to 50 |
| B61 | 20 to 50 |
| B62 | 20 to 50 |
| B63 | > 75 |
| B64 | 20 to 50 |
| B65 | 50 to 75 |
| B66 | 20 to 50 |
| B67 | 20 to 50 |
| B68 | 20 to 50 |
